Assay [1] has as its target wild type human GM-CSF (human) (UniProt P04141). The experiment in a line: SPR (Biacore), human GM-CSF coated on CM5 chip, antibody injected. A general note: SPR reads the build-up and loss of mass on a sensor chip optically.
For assay [2], the target named is human GM-CSF mutant M5 (I101 to V117 replaced by murine sequence) (human). Description: semi-quantitative ELISA; GM-CSF polypeptide coated in 2-fold dilutions (x axis = coating concentration), BD antibody fixed at 310 ng/ml, rabbit anti-rat IgG-HRP, absorbance 450 nm. (An ELISA detects its analyte on a solid surface through an enzyme-linked reagent.)
Chain of human GM-CSF mutant M5 (I101 to V117 replaced by murine sequence) (human) (P04141 other isoform, or with tags, fused parts or gaps mutant): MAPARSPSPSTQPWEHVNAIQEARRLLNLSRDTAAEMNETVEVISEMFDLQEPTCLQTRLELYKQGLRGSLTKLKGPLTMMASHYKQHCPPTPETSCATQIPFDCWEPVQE
The target of assay [3] is human GM-CSF mutant M5b (S96 to N110 replaced by murine sequence) (human). Described as above.
Chain of human GM-CSF mutant M5b (S96 to N110 replaced by murine sequence) (human) (P04141 other isoform, or with tags, fused parts or gaps mutant): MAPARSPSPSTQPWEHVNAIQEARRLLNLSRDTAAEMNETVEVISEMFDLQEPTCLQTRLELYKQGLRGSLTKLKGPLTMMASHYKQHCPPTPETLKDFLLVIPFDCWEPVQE

Chain of wild type human GM-CSF (human) (P04141 other isoform, or with tags, fused parts or gaps limits assumed): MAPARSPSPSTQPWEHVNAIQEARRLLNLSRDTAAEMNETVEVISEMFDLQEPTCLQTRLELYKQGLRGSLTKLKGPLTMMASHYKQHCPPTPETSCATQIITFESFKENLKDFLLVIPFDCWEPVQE

As to “commercially available rat anti-human GM-CSF antibody from BD Biosciences (Cat No. 554501)”, in assay [1], the Ka is above 5.2e+09 M⁻¹, the Kd was below 0.19 nM, the off-rate constant (koff) was below 1e-05 s⁻¹ and the kon worked out at 52000 M⁻¹ s⁻¹. The EC50 (read off the curve) in assay [2] was found to be 300 µg/mL. In assay [3], this substance returned an EC50 (read off the curve) of 400 µg/mL.

By Kd is commonly meant the constant that tells how readily two partners part at equilibrium. Lower therefore signals higher affinity. Broadly, the koff is the first-order rate constant of dissociation. Read a high koff as a short-lived complex. The term kon denotes a measure of how fast the partners come together. Low values mean slower complex formation, high ones faster complex formation. In general, EC50 (read off the curve) refers to the midpoint of the concentration-response curve. Read a low EC50 (read off the curve) as an effect from little substance.
